This note sets out measurements from patent publication US20220332804A1 (CSL INNOVATION, published 2022).

Holding throughout (assay): SPR, KD relative to WT C2;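 note: biacore SPR at 37 °C, anti-C2 mAbs captured on anti-human IgG chips with alanine or serine point mutants of C2 as analyte, KD from 1:1 fit compared with wild-type C2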
For orientation: In SPR one partner is held on a chip, and binding of the other changes the refractive index at the surface.

For one test, the target named is T1, human C2 M316A (human, UniProt P06681 21-752).
T1 sequence: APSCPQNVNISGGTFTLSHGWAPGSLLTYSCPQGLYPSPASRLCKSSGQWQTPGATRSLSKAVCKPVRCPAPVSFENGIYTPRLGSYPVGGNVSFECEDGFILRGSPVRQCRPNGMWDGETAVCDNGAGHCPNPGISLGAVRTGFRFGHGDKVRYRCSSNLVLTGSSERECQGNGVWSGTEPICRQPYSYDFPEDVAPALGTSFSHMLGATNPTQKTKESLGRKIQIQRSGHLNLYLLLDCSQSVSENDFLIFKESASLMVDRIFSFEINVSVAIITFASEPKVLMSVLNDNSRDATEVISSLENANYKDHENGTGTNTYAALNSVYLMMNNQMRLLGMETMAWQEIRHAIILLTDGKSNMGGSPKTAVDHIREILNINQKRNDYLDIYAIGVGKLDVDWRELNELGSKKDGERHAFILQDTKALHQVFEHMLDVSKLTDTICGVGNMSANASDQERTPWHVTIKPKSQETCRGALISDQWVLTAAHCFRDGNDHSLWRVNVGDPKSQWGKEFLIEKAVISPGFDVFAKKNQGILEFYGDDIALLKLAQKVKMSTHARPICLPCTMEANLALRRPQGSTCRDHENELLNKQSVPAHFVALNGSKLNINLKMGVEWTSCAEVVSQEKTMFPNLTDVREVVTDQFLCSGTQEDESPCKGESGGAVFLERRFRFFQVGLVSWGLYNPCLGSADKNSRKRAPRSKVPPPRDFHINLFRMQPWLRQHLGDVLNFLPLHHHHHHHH

Another test addresses T2, human C2 A472S (human, UniProt P06681 21-752).
T2 sequence: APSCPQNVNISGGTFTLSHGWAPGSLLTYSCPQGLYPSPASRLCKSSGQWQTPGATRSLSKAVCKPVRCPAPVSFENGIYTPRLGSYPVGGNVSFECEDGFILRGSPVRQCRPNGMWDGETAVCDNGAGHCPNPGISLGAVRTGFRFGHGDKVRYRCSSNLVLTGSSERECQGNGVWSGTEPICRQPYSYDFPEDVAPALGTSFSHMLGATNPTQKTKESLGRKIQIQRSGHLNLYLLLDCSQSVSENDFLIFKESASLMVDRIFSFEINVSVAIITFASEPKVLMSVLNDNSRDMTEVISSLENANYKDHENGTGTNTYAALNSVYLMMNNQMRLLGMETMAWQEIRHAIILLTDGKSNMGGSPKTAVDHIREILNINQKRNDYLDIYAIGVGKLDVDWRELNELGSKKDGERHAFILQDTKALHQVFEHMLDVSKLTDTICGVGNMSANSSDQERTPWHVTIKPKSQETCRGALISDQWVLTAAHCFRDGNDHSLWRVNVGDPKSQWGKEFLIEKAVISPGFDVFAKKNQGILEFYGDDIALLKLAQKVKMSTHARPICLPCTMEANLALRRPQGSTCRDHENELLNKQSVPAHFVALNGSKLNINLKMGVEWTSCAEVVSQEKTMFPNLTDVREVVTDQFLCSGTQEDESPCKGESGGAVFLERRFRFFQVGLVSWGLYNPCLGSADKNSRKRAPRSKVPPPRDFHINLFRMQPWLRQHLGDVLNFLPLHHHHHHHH

The next test concerns the target T3, human C2 H451A (human, UniProt P06681 21-752).
T3 sequence: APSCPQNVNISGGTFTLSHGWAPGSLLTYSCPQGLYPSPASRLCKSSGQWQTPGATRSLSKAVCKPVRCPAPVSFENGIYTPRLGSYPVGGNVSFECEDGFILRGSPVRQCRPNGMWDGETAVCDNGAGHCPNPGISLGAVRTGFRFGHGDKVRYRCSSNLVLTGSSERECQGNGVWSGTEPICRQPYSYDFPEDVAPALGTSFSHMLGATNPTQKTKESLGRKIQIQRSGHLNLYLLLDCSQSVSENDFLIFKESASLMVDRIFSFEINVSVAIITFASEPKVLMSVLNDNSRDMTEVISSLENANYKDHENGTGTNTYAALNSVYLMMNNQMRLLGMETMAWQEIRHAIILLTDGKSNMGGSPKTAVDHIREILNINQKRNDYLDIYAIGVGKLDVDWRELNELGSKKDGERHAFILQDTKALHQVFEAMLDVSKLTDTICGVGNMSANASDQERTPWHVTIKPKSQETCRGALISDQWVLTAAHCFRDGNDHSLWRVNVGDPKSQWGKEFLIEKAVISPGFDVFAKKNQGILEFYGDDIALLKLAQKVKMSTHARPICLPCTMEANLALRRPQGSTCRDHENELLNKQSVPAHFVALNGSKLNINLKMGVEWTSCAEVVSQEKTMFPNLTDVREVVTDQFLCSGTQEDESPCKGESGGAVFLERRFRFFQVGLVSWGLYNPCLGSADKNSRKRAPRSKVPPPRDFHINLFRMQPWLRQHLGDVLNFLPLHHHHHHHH

The target of a further test is T4, human C2 E686A (human, UniProt P06681 21-752).
T4 sequence: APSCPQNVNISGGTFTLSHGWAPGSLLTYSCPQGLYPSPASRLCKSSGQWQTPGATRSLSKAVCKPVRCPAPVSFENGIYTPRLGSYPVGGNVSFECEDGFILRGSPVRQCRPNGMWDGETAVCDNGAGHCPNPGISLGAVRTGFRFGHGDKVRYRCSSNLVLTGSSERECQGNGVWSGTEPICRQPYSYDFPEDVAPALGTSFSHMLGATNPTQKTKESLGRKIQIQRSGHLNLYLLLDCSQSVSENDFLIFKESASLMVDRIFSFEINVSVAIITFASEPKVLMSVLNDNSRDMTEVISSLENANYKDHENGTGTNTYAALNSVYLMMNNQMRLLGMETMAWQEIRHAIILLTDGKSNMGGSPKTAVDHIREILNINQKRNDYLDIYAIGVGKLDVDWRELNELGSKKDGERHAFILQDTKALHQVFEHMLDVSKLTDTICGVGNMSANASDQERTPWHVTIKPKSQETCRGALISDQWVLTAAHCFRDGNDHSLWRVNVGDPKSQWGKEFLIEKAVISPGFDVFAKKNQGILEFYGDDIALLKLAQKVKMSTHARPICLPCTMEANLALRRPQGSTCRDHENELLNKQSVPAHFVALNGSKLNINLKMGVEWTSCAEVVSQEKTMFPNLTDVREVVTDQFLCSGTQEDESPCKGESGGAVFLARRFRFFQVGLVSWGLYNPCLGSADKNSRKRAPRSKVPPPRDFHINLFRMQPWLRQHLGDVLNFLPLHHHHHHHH

B1: RF16-242 (antibody, human IgG4 S228P, lambda, V domains shown)
VH: EVQLLQSGAEVKKPGESLKISCKGSGYSFTSYWIGWVRQMPGKGLEWMGIIYPGDSDTRYSPSFQGQVTISADKSISTAYLQWSSLKASDTAMYYCARRGHYGDYFDYWGQGTLVTVSS
VL: SYELTQPPSVSVSPGQTARITCSGDALPKKYAYWYHQKSGQAPVLVIYEDRRRPSEIPERFSGSSSGTMATLTITGAQVEDEGVYFCYSRDRAGNQRVFGGGTQLTVLG
notes: pH-dependent anti-C2 antibody from a phage display library
Consider B1, for which the Fold diff was 1 fold in the test with human C2 M316A, 7 fold with human C2 A472S, 3 fold in the test with human C2 H451A and 5 fold with human C2 E686A.
